Consider 1 molecule from patent US20160130351A1 (NOVIMMUNE S A, published 2016).

Test [1] has as its target T1, membrane-bound human IL-6R (human, UniProt P08887 20-468).
T1 construct: whole, on cells; also called mIL-6R; membrane IL-6R
T1 sequence (looked up): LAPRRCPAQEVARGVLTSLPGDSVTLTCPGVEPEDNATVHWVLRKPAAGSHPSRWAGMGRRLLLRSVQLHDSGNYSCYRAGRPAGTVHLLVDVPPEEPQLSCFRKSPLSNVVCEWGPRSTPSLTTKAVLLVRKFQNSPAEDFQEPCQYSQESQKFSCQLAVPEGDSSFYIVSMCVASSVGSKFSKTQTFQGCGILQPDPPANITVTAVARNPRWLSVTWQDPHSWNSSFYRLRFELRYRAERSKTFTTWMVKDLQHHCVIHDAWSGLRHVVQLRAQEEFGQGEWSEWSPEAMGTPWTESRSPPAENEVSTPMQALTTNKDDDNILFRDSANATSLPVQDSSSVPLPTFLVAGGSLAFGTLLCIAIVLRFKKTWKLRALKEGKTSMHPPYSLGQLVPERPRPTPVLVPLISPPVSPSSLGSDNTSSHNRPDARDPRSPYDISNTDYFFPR
Briefly: flow cytometry on HepG2 cells, goat anti-human IgG Alexa Fluor 647. The method, then:
Cell surface staining is performed on HepG2 cells with different doses of mAbs. […] Each experiment was performed in triplicates.

Test [2] deals with T2, carrier-free soluble human IL-6R (R&D) (human, UniProt P08887 20-365).
T2 construct: extracellular domain; also called shuIL-6R; shuIL6-R
T2 sequence (looked up): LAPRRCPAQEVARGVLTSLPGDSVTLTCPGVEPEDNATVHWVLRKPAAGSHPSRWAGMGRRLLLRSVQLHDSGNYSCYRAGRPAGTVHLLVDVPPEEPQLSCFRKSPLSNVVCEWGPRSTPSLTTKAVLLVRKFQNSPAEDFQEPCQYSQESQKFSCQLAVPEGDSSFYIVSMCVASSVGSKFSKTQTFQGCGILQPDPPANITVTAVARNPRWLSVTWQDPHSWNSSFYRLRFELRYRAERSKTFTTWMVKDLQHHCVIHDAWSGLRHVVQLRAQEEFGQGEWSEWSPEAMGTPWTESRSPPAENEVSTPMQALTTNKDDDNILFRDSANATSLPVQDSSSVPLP
Briefly: SPR (Biacore 2000), mAb captured on anti-human IgG Fc, analyte in solution, 25 C, 1:1 Langmuir. The method, then: (§1) A CM5 Biacore chip was used and 1640 RU (response units) of an anti-human IgG Fc (Biacore AB, Uppsala, Sweden) was immobilized by EDC/NHS chemistry. […] The surface was regenerated after each cycle by injection of 3M magnesium chloride at 20 μL/min, for 30 s followed by lmin of stabilization time in HBS-EP buffer (Biacore AB, Uppsala, Sweden). Binding was measured by passing analytes carrier-free soluble human IL-6R (shuIL6-R; R&D), soluble human IL-6Rc (shuIL-6Rc) and soluble cynomolgus monkey IL-6R (scyIL-6R) in duplicates at the following concentrations: 100 nM, 50 nM, 25 nM, 12.5 nM, 6.25 nM and 0nM. All solutions were diluted in HBS-EP buffer. Injection was performed at 50 μl/min for 3 min followed by 12 min of dissociation time and the temperature was set at 25° C.

Test [3] addresses T3, soluble cynomolgus monkey IL-6R (cynomolgus monkey, UniProt A0A2K5WN54 60-396).
T3 construct: extracellular domain; also called scyIL-6R; soluble cynomolgus monkey IL-6 Receptor; not shown: C-terminal His- or Avi-Tag
T3 sequence: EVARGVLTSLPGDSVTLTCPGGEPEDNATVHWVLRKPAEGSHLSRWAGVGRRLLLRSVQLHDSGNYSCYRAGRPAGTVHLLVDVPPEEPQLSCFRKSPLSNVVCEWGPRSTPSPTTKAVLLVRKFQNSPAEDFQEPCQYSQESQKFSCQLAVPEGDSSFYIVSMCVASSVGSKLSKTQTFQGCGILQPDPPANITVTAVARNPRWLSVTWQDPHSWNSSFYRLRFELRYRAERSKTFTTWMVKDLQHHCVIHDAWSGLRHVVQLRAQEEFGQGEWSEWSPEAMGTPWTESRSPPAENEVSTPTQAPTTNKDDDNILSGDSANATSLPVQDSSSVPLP
Described as above. The method, then: as §1

In test [4] the target is T4, MUTANT 5 (mouse, UniProt P22272).
T4 construct: also called mouse IL-6R with human residues in D3, mutant 5
T4 sequence (receptor chain, looked up): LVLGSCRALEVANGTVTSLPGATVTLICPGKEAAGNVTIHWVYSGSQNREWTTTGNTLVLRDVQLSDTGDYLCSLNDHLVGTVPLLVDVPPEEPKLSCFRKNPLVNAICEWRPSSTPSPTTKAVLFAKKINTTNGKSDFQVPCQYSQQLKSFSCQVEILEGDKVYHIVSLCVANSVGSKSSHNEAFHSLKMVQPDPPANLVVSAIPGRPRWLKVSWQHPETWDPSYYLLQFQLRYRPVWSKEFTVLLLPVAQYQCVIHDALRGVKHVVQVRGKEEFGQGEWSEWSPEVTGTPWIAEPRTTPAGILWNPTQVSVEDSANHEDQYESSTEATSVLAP
Put plainly: flow cytometry on PEAK cells displaying the mutated mouse IL-6R, goat anti-human IgG Alexa Fluor 647. From the text:
An overlap extension PCR strategy was used to generate coding sequences specifying huIL-6R/mouseIL-6R chimeric proteins (FIG. 6A) and mouse IL-6R proteins containing human amino acid substitutions in D3 domains (FIG. 6B). Partially overlapping mutagenic oligonucleotide primers were used for PCR amplification of N- and C-terminal sequences on either side of huIL-6R/mouse IL-6R junctions or substituted regions, followed by gel isolation and annealing of the denatured PCR products. Full length PCR products were then digested by EcoRI and BglII and ligated into a pDISPLAY™ vector (Invitrogen). PEAK cells were grown in DMEM medium supplemented with 10% fetal calf serum and 4 mM L-glutamine. Cells were plated 12 to 24 h before transfection to have 40-50% confluency in 6 well plates. Transfections of pDISPLAY™ vectors (Invitrogen) were carried out by lipofection using TransIT® LT1 reagent (MirusBio) according manufacturer's specifications. Cells were grown for 48 h before harvesting and analysis by flow cytometry.
Cell surface staining was performed on PEAK cells displaying each variant of IL-6R and analyzed by flow cytometry (FIG. 6B-D). Cell surface expression of each chimeric IL-6R was assessed using an anti-human-CD126 PE or an anti-mouse CD126-PE antibody (BD Pharmingen).

B1: NI-1201 wild type (NI-1201-WT) antibody (antibody, V domains shown)
VH: QVQLVQSGAEVKKPGSSVKVSCKASGGTFSSYAISWVRQAPGQGLEWMGGIIPLFDTTKYAQQFQGRVTITADESTSTAYMELSSLRSEDTAVFYCARDRDILTDYYPMGGMDVWGQGTTVTVSS
VL: AIQLTQSPSSLSASVGDRVTITCRASQGISSVLAWYQQKPGKAPKLLIYDASSLESGVPSRFSGSGSGTDFTLTISSLQPEDFATYYCQQSNSYPLTFGGGTKVEIKR
notes: Fully human monoclonal IgG (captured by anti-human IgG Fc in Biacore); also called 39B9 VL1
In the case of B1, the concentration for a half-maximal effect (EC50 (read off the curve)) in test [1] was about 0.2 µg/mL. In test [2], this molecule came in with a Kd of 0.0567 nM, a dissociation rate constant (koff) of 7.53e-05 s⁻¹ and an on-rate (kon) of 1.33e+06 M⁻¹ s⁻¹. In test [3], this molecule showed a Kd of 2.04 nM, a koff of 0.000215 s⁻¹ and a kon of 106000 M⁻¹ s⁻¹. In addition, the binding result in test [4] was “no binding”.
